Here are results for one molecule from PMC8155215, “The splicing factor XAB2 interacts with ERCC1-XPF and XPG for R-loop processing”.

The series addresses T1, recombinant human XAB2 (Homo sapiens, UniProt Q9HCS7 1-855).
T1 sequence: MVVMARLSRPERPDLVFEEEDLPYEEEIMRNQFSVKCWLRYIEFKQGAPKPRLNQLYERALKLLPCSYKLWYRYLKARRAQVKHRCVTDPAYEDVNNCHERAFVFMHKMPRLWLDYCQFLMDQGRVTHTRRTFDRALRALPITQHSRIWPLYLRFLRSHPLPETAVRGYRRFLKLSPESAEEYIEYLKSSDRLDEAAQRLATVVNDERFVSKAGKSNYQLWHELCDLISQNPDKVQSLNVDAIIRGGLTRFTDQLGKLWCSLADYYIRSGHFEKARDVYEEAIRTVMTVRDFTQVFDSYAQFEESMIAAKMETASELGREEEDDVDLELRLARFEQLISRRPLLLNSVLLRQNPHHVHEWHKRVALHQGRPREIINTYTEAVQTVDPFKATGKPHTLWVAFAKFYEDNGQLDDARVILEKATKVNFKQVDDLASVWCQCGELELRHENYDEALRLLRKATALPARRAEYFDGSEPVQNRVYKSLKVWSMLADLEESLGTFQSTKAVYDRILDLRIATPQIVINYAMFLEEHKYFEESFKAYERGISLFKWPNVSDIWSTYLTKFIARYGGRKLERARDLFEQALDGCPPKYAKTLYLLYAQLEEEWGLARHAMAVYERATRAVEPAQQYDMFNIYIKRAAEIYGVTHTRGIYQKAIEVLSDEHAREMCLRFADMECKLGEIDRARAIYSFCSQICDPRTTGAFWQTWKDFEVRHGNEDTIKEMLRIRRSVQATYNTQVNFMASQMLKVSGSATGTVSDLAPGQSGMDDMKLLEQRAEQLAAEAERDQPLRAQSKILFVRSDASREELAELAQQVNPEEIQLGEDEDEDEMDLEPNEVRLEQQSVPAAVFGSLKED
The series is described as follows: EMSA; 0.1-10 nmol protein, 100 pmol RNA; no consumption of RNA oligo; 10 mM Tris-HCl pH 8.0, 50 mM KCl, 10% glycerol, 0.5 mM EDTA, 0.5 mM DTT, 1 ug/ml BSA, 6 mM MgCl2, 30 min at 4 C, 10 ul, 100 pmol RNA; 4% native PAGE in 0.5x TBE pH 7.5. The settings on record: protein: commercial; label: 5' biotin; single strand.

On to AUUGGAACGAUACAGAGAAGAU (ssRNA) [XAB2RBS], for which the binding result is reported as “no binding”.
